Data set [1] concerns the molecule itself. Put plainly: SEC; FLAG-purified, TEV-eluted co-expressed complex run on a Superose 6 column; fractions on SDS-PAGE. Background: In gel filtration, larger molecules generally elute earlier.
Data set [2] deals with T1, HDAC1 (residues 1–482) (UniProt Q13547 1-482).
T1 construct: Two copies stand in the HDAC1:MTA1 dimer complex; also called histone deacetylase 1; source: HEK293F, co-transfected, in lysate; co-purified (FLAG resin, TEV protease, Superose 6)
T1 sequence (Q13547 whole entry, the tested form may be a part): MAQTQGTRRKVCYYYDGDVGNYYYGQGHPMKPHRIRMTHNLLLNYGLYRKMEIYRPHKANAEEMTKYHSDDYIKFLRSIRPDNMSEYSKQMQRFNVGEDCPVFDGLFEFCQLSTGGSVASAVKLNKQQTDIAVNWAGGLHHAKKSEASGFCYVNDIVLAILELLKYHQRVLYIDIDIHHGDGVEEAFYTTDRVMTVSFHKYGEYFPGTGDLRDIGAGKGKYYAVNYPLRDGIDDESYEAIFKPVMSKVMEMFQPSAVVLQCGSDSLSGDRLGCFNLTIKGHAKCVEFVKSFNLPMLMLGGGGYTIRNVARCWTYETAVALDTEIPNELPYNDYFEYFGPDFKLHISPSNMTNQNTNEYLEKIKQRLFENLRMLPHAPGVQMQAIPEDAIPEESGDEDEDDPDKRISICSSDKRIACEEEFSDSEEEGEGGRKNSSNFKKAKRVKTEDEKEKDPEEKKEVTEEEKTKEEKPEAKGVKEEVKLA
Put plainly: co-IP; HEK293F cells co-transfected with His10-Flag3-MTA1 construct, HDAC1 and MBD2; clarified lysate on FLAG resin 30 min, washes in 50 mM Tris-HCl pH 7.5, 100 mM potassium acetate, 5% glycerol, RNase A, elution with TEV protease; SDS-PAGE; DNA ratios 1:1:1 and 1:1:4. To be noted: partners not purified.

Data set [3] addresses T2, MBD2 (residues 145–411) (UniProt Q9UBB5 145-411).
T2 construct: also called untagged MBD2; source: HEK293F, co-transfected, in lysate; co-purified (FLAG resin, TEV protease, Superose 6)
Described as above. To be noted: partners not purified.

Data set [4] concerns the molecule itself. Put plainly: SEC-MALS; peak fraction of the gel filtration-pure HDAC1:MTA1:MBD2 complex re-run on Superose 6 with refractive index and MALS detectors.
Data set [5] deals with T3, Strep-MBD2 (residues 114–411) (UniProt Q9UBB5 114-411).
T3 construct: MBD2, residues 114–411; source: HEK293F, co-transfected, in lysate; co-purified (FLAG resin, TEV protease, Superose 6)
T3 sequence (Q9UBB5 114-411): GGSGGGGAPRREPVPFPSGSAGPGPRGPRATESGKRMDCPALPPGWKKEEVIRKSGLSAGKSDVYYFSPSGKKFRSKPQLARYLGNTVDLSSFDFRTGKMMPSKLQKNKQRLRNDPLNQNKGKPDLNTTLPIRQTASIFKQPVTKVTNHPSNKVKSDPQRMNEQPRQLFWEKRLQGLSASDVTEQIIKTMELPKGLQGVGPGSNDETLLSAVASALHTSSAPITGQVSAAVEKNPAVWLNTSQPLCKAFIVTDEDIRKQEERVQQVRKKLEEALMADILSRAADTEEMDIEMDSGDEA
Put plainly: co-IP; HEK293F cells co-transfected with His10-Flag3-MTA1 construct, HDAC1 and MBD2; clarified lysate on FLAG resin 30 min, washes in 50 mM Tris-HCl pH 7.5, 100 mM potassium acetate, 5% glycerol, RNase A, elution with TEV protease; SDS-PAGE; DNA ratios 1:1:1 and 1:1:4. The note with it: partners not purified.

Data set [6] addresses T1, HDAC1 (residues 1–482). The experiment in a line: cryo-EM structure; co-expressed complexes purified by gel filtration, on graphene oxide grids; maps of 6.1, 4.5 and 19 Å with known structures docked as rigid bodies. The note with it: both partners purified.
Data set [7] deals with the molecule itself. The data set is described as above.

T2 sequence (Q9UBB5 145-411): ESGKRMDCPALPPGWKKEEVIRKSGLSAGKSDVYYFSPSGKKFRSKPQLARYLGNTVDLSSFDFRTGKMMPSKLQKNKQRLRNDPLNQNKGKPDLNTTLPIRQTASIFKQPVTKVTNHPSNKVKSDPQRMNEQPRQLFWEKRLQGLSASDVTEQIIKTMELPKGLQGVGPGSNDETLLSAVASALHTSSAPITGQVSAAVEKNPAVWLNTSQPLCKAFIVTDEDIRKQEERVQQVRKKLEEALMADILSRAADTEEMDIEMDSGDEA

B1: MTA1-Δ12 (MTA1 162–354 with part of ELM2 helix 2 deleted) (domain or fragment, UniProt Q13330 162-354, looked up)
chain: ADKGEIRVGNRYQADITDLLKEGEEDGRDQSRLETQVWEAHNPLTDKQIDQFLVVARSVGTFARALDCSSAASRDITLFHAMDTLHKNIYDISKAISALVPQGGPVLCRDEMEEWSASEANLFEEALEKYGKDFTDIQQDFLPWKSLTSIIEYYYMWKTTDRYVQQKRLKAAEAESKLKQV
notes: Tag cleaved off by TEV protease before the gel filtration; Runs as a dimeric and a monomeric species on Superose 6; source: HEK293F, co-transfected, in lysate; co-purified (FLAG resin, TEV protease, Superose 6); not shown: His10-Flag3, N-terminal, kept
As for B1, the binding result in data set [1], in data set [2] and in data set [3] was “binds” throughout.

B2: MTA1 ELM2-SANT domain (residues 162–354) (domain or fragment, UniProt Q13330 162-354, looked up)
chain: ADKGEIRVGNRYQADITDLLKEGEEDGRDQSRLETQVWEAHNPLTDKQIDQFLVVARSVGTFARALDCSSSVRQPSLHMSAAAASRDITLFHAMDTLHKNIYDISKAISALVPQGGPVLCRDEMEEWSASEANLFEEALEKYGKDFTDIQQDFLPWKSLTSIIEYYYMWKTTDRYVQQKRLKAAEAESKLKQV
notes: The tag held the complex on the FLAG resin; it was cleaved off by TEV protease before gel filtration, SEC-MALS, the Strep-Tactin step and cryo-EM; also called MTA1 wildtype; source: HEK293F, co-transfected, in lysate; co-purified (FLAG resin, TEV protease, Superose 6); not shown: His10-Flag3, N-terminal, kept
By stoichiometry N is commonly meant a count of units in the complex or per binding partner. B2: the “stoichiometry N” value in data set [4] is 2. Besides, the binding result in data set [2], in data set [3] and in data set [5] was “binds” in each case.

B3: MTA1 BAH-ELM2-SANT-ZnF (residues 1–453) (domain or fragment, UniProt Q13330 1-453, looked up)
chain: MAANMYRVGDYVYFENSSSNPYLIRRIEELNKTANGNVEAKVVCFYRRRDISSTLIALADKHATLSVCYKAGPGADNGEEGEIEEEMENPEMVDLPEKLKHQLRHRELFLSRQLESLPATHIRGKCSVTLLNETESLKSYLEREDFFFYSLVYDPQQKTLLADKGEIRVGNRYQADITDLLKEGEEDGRDQSRLETQVWEAHNPLTDKQIDQFLVVARSVGTFARALDCSSSVRQPSLHMSAAAASRDITLFHAMDTLHKNIYDISKAISALVPQGGPVLCRDEMEEWSASEANLFEEALEKYGKDFTDIQQDFLPWKSLTSIIEYYYMWKTTDRYVQQKRLKAAEAESKLKQVYIPNYNKPNPNQISVNNVKAGVVNGTGAPGQSPGAGRACESCYTTQSYQWYSWGPPNMQCRLCASCWTYWKKYGGLKMPTRLDGERPGPNRSNMSPHGL
notes: MTA1, BAH, ELM2, SANT and GATA zinc finger domains, residues 1–453; also called extended MTA1 construct; source: HEK293F, co-transfected; co-purified (FLAG resin, TEV protease, Superose 6); not shown: His10-Flag3, N-terminal, cleaved
With B3, the binding result in data set [6] and in data set [7] was “binds” each time.

Source of the values: publication PMC7736783 (Nucleic Acids Research, 2020).
